Experimental data taken from patent publication US20230149543A1 (GlaxoSmithKline, published 2023).

Target: T1, human ICOS (Inducible T-cell COStimulator) receptor on peripheral CD4 and CD8 T cells (human, UniProt Q9Y6W8 21-199)
T1 construct: Native ICOS on T cells of treated subjects; also called ICOS receptor; CD278
T1 sequence: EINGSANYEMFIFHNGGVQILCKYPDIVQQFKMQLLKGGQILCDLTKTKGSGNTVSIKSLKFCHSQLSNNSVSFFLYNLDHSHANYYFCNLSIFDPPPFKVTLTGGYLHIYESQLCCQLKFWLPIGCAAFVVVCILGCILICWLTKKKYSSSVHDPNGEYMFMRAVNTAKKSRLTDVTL
Test: ICOS receptor occupancy on peripheral CD4 and CD8 T cells of dosed subjects (clinical pharmacodynamic analysis)

binding result: binds
B1: H2L5 hIgG4PE (antibody, V domains shown)
VH: QVQLVQSGAEVKKPGSSVKVSCKASGYTFTDYAMHWVRQAPGQGLEWMGLISIYSDHTNYNQKFQGRVTITADKSTSTAYMELSSLRSEDTAVYYCGRNNYGNYGWYFDVWGQGTTVTVSS
VL: EIVLTQSPATLSLSPGERATLSCSASSSVSYMHWYQQKPGQAPRLLIYDTSKLASGIPARFSGSGSGTDYTLTISSLEPEDFAVYYCFQGSGYPYTFGQGTKLEIKR
notes: Humanized IgG4PE (S228P, L235E) monoclonal antibody; also called H2L5 IgG4PE; feladilimab
